The source of these data is the RNAGym collection of RNA variant scans (doi:10.7554/elife.90254).

First the molecules themselves.
B1: LINE1-full (parent)
chain: UACGUAGGUGGUUUUCCCCUGAUAGUGCUAAGGGGGCCUGGAAGUUUGGACUGGGCAGAGCUCAACACAGCGUGGCAAAGUGGCUGUGGCUAGACUGCCUCUCUGGAUUCCUCGUCACUCAGCAGGGCAUCUCUGAGAGAAAUGCC

In this data set the parent is B1. Put plainly: self-cleavage, relative activity (ratio to wild type); higher = more cleavage; in vitro, sequencing; the parent is a self-cleaving ribozyme.
In the case of A92C U130A, the self-cleavage came to 0.28.
Take A94U U109A: the self-cleavage was found to be 0.27.
Turning to C98A U130C, the self-cleavage was determined as 0.13.
As for G93A U109A, the figure is 0.03; as for G93A U109G, 0.06.
As for G93U A121C, the figure is 0.03; as for C95A, 0.07.
The result for C95G reads 0.06; that for C95U, 0.14.
As for A94C U96C, the self-cleavage came out at 0.18.
As for U96G U119A, the self-cleavage worked out at 0.03.
The result for U96A G127U reads 0.05; that for U100A U112C, 1.09; that for U100A U112A, 0.91.
The result for G93A U102C reads 0.06; that for A94G U102C, 0.18; that for G93A G122C, 0.01.
As for A94U A121G, the self-cleavage came to 0.52.
As for A92G G114A, the figure is 0.1; as for U96A G122A, 0.06; as for A92G G127A, 0.12.
As for A92G A140G, the figure is 0.15; as for A92G C118U, 0.07.
As for G97A A121C, the figure is 0.12.
Consider A94U U108C, for which the self-cleavage was found to be 0.46.
The result for A92U reads 0.66; that for A92G, 0.1; that for U100A C111A, 1.19.
The result for G97A A138G reads 0.14; that for U96C U130A, 0.12.
As for C98G, the figure is 0.13; as for C98U, 0.4.
With C98A, the self-cleavage turned out to be 0.17.
As for A92C A142G, the figure is 0.33; as for G97A A136U, 0.11; as for U96C C123U, 0.04.
The result for A92G C103U reads 0.03; that for U96G, 0.1.
The result for U96A reads 0.07; that for U96C, 0.13; that for U96C C101U, 0.06.
Regarding A92G U130C, the self-cleavage was determined as 0.11.
As for A94G A140G, the figure is 0.26; as for U96A U143G, 0.1; as for U96A U143C, 0.06.
The result for U96A U143A reads 0.38; that for C98U U130C, 0.5; that for G97C G106U, 0.2.
As for A92U A94G, the figure is 0.05; as for A94G A117U, 0.4; as for U96C A107U, 0.17.
G97C C111A: the self-cleavage came to 0.18.
As for A92U U108A, the figure is 0.6.
A92G A129U: the self-cleavage came to 0.17.
For A94G U96C, the self-cleavage worked out at 0.11.
As for A94G U96A, the figure is 0.11; as for A94G A107G, 0.51; as for A92G U115C, 0.08.
The result for U100A U109A reads 0.76.
For U96A G114A, the self-cleavage came to 0.06.
As for U96G C120U, the figure is 0.04; as for C99U U130C, 0.69.
The result for G97U A129U reads 0.08.
The result for A92C A138G reads 0.14.
As to A92G G126U, the self-cleavage came to 0.13.
On to A94U A117U, for which the self-cleavage was determined as 0.41.
Turning to A94U A117G, the self-cleavage worked out at 0.38.
As for A94U U112G, the figure is 0.42; as for A94G A142G, 0.41.
The result for U96C U143A reads 0.13; that for G93A C95G, 0.04.
As for G93A A140G, the figure is 0.06; as for A92U A141G, 0.96.
Take U96A A117G: the self-cleavage was found to be 0.11.
As for U96C G97A, the figure is 0.02.
U96A U108A: the self-cleavage amounted to 0.13.
As for C99U C113U, the figure is 0.41.
As for U96C A124G, the figure is 0.06.
Regarding A92G C133U, the self-cleavage came to 0.02.
As to A94G C113U, the self-cleavage was 0.09.
The result for A92U U104A reads 0.44.
The result for C98G G125A reads 0.05; that for G93U A140G, 0.05.
As for U96G A124G, the figure is 0.19.
Consider G93C, for which the self-cleavage is 0.05.
Turning to G93U, the self-cleavage came out at 0.06.
In the case of G93A, the self-cleavage stood at 0.04.
As for A92G G137U, the figure is 0.07; as for A94U A124U, 0.35.
The result for A94U A124G reads 0.33; that for A94C C95U, 0.02; that for U96A A138G, 0.07.
The result for C99A A138G reads 0.88; that for A92G C146U, 0.07; that for U96G U115C, 0.
For the variant U96A A121G, the self-cleavage stood at 0.1.
The result for U96A A121C reads 0.06; that for C99U U115A, 0.33.
As for C99U U115C, the figure is 1.15.
The result for C99U C101U reads 1.
For the variant C98A U108C, the self-cleavage was 0.4.
As for U96A C111U, the figure is 0.07; as for U96C G127U, 0.19; as for U96C G127C, 0.39.
With U96C G127A, the self-cleavage was 0.08.
As for C99U A138G, the figure is 1.14; as for C99U A138U, 0.74; as for U96C A129C, 0.15.
As for C99A C113U, the figure is 0.27; as for A94G G97A, 0.02; as for U96C U112C, 0.12.
The result for U96C U112A reads 0.12.
For U96C A140G, the self-cleavage stood at 0.09.
In the case of U100A A121G, the self-cleavage was 1.58.
The result for U100A G126A reads 1.03; that for U96C G122A, 0.07; that for U100A A142C, 1.
For the variant U100A A142U, the self-cleavage is 0.74.
Regarding C99U A117G, the self-cleavage came to 0.4.
The result for C95U A124U reads 0.2.
As for U96C G114A, the figure is 0.11; as for A92C C113U, 0.14.
As for A94G U119A, the self-cleavage is 0.39.
In the case of A94G U119C, the self-cleavage came to 0.38.
The result for U96C A138G reads 0.2.
In the case of A92C A121U, the self-cleavage came to 0.05.
For the variant A92U U132C, the self-cleavage came out at 0.83.
The result for A92U U132A reads 0.69; that for U96A G105A, 0.04; that for U100A A124U, 0.88.
As for U100A A124C, the figure is 1.28; as for A92G A124G, 0.04; as for A94C A107G, 0.13.
As for U96G U134C, the figure is 0.23; as for C95U U104C, 0.54; as for U96C U119A, 0.18.
On to U96C U119C, for which the self-cleavage came to 0.22.
On to A94C G126C, for which the self-cleavage stood at 0.23.
As for C95U U134C, the figure is 0.11; as for G97A A117U, 0.17; as for A92C U102C, 0.14.
The result for A92U U134A reads 0.52; that for A92U U134C, 0.71; that for A92U C120U, 0.78.
As for U96A U132A, the figure is 0.08.
As to C98U C123U, the self-cleavage was 0.35.
The result for U100A A107G reads 0.87; that for U96C C120U, 0.2.
For the variant C99U A129G, the self-cleavage stood at 0.89.
The result for U96A C110G reads 0.09.
As for A92G C110U, the figure is 0.05; as for G93U A136G, 0.08.
For U96G U109C, the self-cleavage stood at 0.17.
A92U A129U: the self-cleavage worked out at 0.6.
As for A92U A129G, the figure is 0.69; as for G97A U134C, 0.07.
The result for U100A U108C reads 1.96; that for U100A U108A, 0.97; that for C99U, 0.57.
C99A: the self-cleavage was determined as 0.4.
The result for C99G reads 0.76.
The result for U96C A121C reads 0.09; that for U96C A121G, 0.12.
The result for A94G G105A reads 0.18; that for A94G G105U, 0.2; that for U96A A107G, 0.08.
Take U96A A107U: the self-cleavage is 0.08.
